According to US20230159650A1 (SEOUL NATIONAL UNIVERSITY R AND DB FOUNDATION, published 2023):
Changes are numbered by the printed parent chain.

B1: DR5 where huDR5-CRD2 was mutated (Mutation huDR5-CRD2 Protein) (receptor)
chain: ITQQDLAPQQRAAPQQKRSSPSEGLCPPGHHISEDGRDCISCKYGQDYSTHWNDLLACLACTRCAAGEVELSPCTTTRNTVCQCEEGTFREEDSPEMCRKCRTGCPRGMVKVGDCTPWSDIECVHKESGIIIGVTVAAVVLIVAVFVCKSLLWKKVLPYLKGICSGGGGDPERVDRSSQRPGAEDNVLNEIVSILQPTQVPEQEMEVQEPAEPTGVNMLSPGESEHLLEPAEAERSQRRRLLVPANEGDPTETLRQCFDDFADLVPFDSWEPLMRKLGLMDNEIKVAKAEAAGHRDTLYTMLIKWVNKTGRDASVHTLLDALETLGERLAKQKIEDHLLSSGKFMYLEGNADSAMS
notes: Expressed in transfected mouse cells; also called huDR5-CRD2 mutant
B2: DR5 where huDR5-CRD3 was mutated (Mutation huDR5-CRD3 Protein) (receptor)
chain: B1 chain with A57F, A60R, A65D, A66S, S94A, E96A, R99A, R102A
notes: Expressed in transfected mouse cells; also called huDR5-CRD3 mutant

Target: T1, human FasL where an immunoglobulin (IgG) is combined (huFasL-IgG) (human, UniProt P48023 134-281, limits assumed)
T1 construct: also called IgG-combined FasL; not shown: immunoglobulin (IgG) part
T1 sequence (looked up): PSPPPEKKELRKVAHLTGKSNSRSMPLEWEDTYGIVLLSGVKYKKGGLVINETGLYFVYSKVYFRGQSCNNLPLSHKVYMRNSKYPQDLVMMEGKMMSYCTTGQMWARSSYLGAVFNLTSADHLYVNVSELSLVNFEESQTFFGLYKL
Assay: flow cytometry on transfected mouse cells
Experimental: After transfecting mutated huDR5 DNA to mouse cells and expressing each of DR5 where huDR5-CRD2 was mutated (Table 1, SEQ ID NO: 4), or DR5 where huDR5-CRD3 was mutated (Table 1, SEQ ID NO: 5), flow cytometry was performed using human FasL where an immunoglobulin (IgG) binding only to cells expressing huDR5 was combined (huFasL-IgG), and the result was shown in FIG. 8b.

Binder | binding result
B1 | no binding
B2 | no binding
